# Reference: patent publication US20210363269A1 (ALX ONCOLOGY, published 2021)
# Residue numbers refer to the chain shown, from its start.
# B1: S25 (scFv, V domains shown)
# VH: DVQLVESGGGVVRPGESLRLSCEASGFTFSSNAMSWVRQAPGKGLEWVAGISSGSDTYYGDSVKGRLTISRDNSKNILYLQMNSLTAEDTAVYYCARETWNHLFDYWGLGTLVTVSS
# VL: ALTQPASVSANPGETVEITCSGGSYSSYYYAWYQQKSPGSAPVTLIYSDDKRPSNIPSRFSGSASGSTATLTITGVRAEDEAVYFCGGYDQSSYTNPFGAGTTLTVL
# notes: also called clone 25; scFv-Fc form of AB25
# B2: S59 (scFv, V domains shown)
# VH: DVQLVESGGGVVRPGESLRLSCAVSGFRFSSHAMSWVRQAPGKGLEWVSGISSGGDTYYVDSVKGRFTISRDNSKNTLYLQVNSLTAEDTAIYYCARETWNHLFDYWGLGTLVTVSS
# VL: ALTQPASVSANLGETVKITCSGGDSSSHYYGWYQQKSPGSAPVTVIYSDDERPSDIPSRFSGSASGSTATLTITGVRVEDEAIYYCGAYDGSTYANTFGAGTTLTVL
# notes: also called clone 59
# B3: S76 (scFv, V domains shown)
# VH: DVQLVESGGGVVRPGESLRLSCAASGFTFSSYAMSWVRQAPGKGLEWLAGISAGGSDTYYIDSVKGRFTISRDNSKNSLYLQMNSLTAEDTAVYYCARETWNHLFDYWGLGTLVTVSS
# VL: ALTQPASVSANPGETVKITCSGGDWYSTYYGWYQQKSPGSAPVTVIHSDDKRPSDIPSRFSGSASGSAATLTITGVRVEDEAVYYCAGYDGRTYINTFGAGTTLTVL
# notes: also called clone 76
# B4: S24 (scFv, V domains shown)
# VH: B3 VH with Y32N, I61P, D62A, S75P, S78T, S85T
# VL: B1 VL with E17K, T19A, S26Y, A31G, P42L, L45V, N55G, F85Y, Q91Y, P97D
# notes: also called clone 24
# B5: S22 (scFv, V domains shown)
# VH: DVQLVESGGGVVRPGESLRLSCAASGFTFSSYAMSWVRQAPGKGLEWLAGISAGGSDTYYIDSVKGRFTISRRQFQEQSLSPNEPALTAEDTAVYYCARETWNHLFDYWGLGTLVTVSS
# VL: B3 VL with W25Y, T74A, Y85F, A87G, G88A
# notes: also called clone 22
# B6: S69 (scFv, V domains shown)
# VH: B3 VH with V2L
# VL: B3 VL with T19I, W25Y, Y85F, A87G, G88A
# notes: also called clone 69
# B7: S60 (scFv, V domains shown)
# VH: B3 VH with E6D
# VL: B3 VL with W25Y, Y85F, A87G, G88A
# notes: also called clone 60
# B8: S21 (scFv, V domains shown)
# VH: B3 VH with Y32N, I61P, D62A, S78T, S85T
# VL: ALTQPASVSANPGETVKIACSGGDYYSYYYGWYQQKAPGSALVTVIYSDDKRPSDIPSRFSGSASGSTATLTITGVRAEDEAVYYCGGYDYSTYANAFGAGTTLTVL
# notes: also called clone 21; scFv-Fc form of AB21
# Target: T1, human SIRPβ isoform 1 (human, UniProt O00241 30-148)
# T1 construct: also called SIRPb; sirpb1
# Assay: SPR, Langmuir fit
# In short: (§1)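 Dissociation rate constants (koff) were measured on a ProteOn XPR36 instrument by Langmuir model fitting. Antibody clones in scFv-Fc format were captured from pre-filtered culture media onto a GLC chip with about 4000 RU of amine-coupled anti-human IgG Fc. SIRP analytes ran in PBS pH 7.4 with 0.01% Tween-20 at 25° C, and the model used was 1:1, applied to data double-referenced against interspot and buffer-blank responses.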
# T1 sequence (O00241 30-148 limits assumed): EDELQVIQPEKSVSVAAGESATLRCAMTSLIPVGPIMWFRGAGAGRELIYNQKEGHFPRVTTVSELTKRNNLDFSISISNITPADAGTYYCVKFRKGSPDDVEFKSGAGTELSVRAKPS
row,Binder,koff
1,B1,0.000171 s⁻¹
2,B2,0.000107 s⁻¹
3,B3,0.000187 s⁻¹
4,B4,0.000194 s⁻¹
5,B5,0.000138 s⁻¹
6,B6,0.000229 s⁻¹
7,B7,0.000153 s⁻¹
8,B8,0.00019 s⁻¹

# Target: T2, cynomolgus SIRP-α D1 domain (cyno2) (cynomolgus monkey, UniProt Q5TFQ8 30-148 (human entry), limits assumed)
# T2 chain: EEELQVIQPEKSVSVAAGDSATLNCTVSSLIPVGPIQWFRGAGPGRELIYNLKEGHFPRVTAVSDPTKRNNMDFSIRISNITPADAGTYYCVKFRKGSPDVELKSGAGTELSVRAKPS
# Assay: SPR, Langmuir fit
# In short: as §1
row,Binder,koff
1,B1,0.000212 s⁻¹
2,B2,0.000113 s⁻¹
3,B3,0.000269 s⁻¹
4,B4,0.000334 s⁻¹
5,B5,0.000177 s⁻¹
6,B6,0.000216 s⁻¹
7,B7,0.000175 s⁻¹
8,B8,0.000252 s⁻¹

# Target: T3, human SIRPγ isoform 1 (human, UniProt Q9P1W8 29-147)
# T3 construct: also called SIRPg; sirpg
# Assay: SPR, Langmuir fit
# In short: as §1
# T3 sequence (Q9P1W8 29-147 limits assumed): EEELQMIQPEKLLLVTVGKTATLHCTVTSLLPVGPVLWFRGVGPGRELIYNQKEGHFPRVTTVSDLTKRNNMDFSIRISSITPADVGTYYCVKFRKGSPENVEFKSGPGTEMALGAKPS
row,Binder,koff
1,B1,0.000141 s⁻¹
2,B2,4.28e-05 s⁻¹
3,B3,0.000177 s⁻¹
4,B4,0.000197 s⁻¹
5,B5,0.000108 s⁻¹
6,B6,0.000199 s⁻¹
7,B7,0.0001 s⁻¹
8,B8,0.000184 s⁻¹

# Target: T4, human SIRP-α v2 D1 domain (human)
# T4 construct: also called human v2
# Assay: SPR, Langmuir fit
# In short: as §1
# T4 sequence (chain, as listed by the source limits assumed): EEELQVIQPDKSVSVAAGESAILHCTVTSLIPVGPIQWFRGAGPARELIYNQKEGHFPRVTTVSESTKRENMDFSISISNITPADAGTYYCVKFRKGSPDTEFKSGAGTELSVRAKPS
row,Binder,koff
1,B1,0.000209 s⁻¹
2,B2,8.63e-05 s⁻¹
3,B3,0.000209 s⁻¹
4,B4,0.000317 s⁻¹
5,B5,0.000146 s⁻¹
6,B6,0.000267 s⁻¹
7,B7,0.000186 s⁻¹
8,B8,0.000207 s⁻¹

# Target: T5, cynomolgus SIRP-α D1 domain (cyno1) (cynomolgus monkey, UniProt Q5TFQ8 30-148 (human entry), limits assumed)
# T5 chain: T2 chain with D19E, V27A, S28T, A42V, N51H, L52Q, A62P
# Assay: SPR, Langmuir fit
# In short: as §1
row,Binder,koff
1,B1,0.000219 s⁻¹
2,B2,0.000106 s⁻¹
3,B3,0.000277 s⁻¹
4,B4,0.000382 s⁻¹
5,B5,0.000177 s⁻¹
6,B6,0.000255 s⁻¹
7,B7,0.000192 s⁻¹
8,B8,0.000233 s⁻¹

# Target: T6, high affinity SIRP-α D1 variant CV1-3
# T6 chain: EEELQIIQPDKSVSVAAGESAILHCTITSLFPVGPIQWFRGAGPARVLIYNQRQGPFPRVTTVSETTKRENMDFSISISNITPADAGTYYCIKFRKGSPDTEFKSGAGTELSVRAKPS
# Assay: SPR, Langmuir fit
# In short: as §1
row,Binder,koff
1,B1,0.00014 s⁻¹
2,B2,8.19e-05 s⁻¹
3,B3,0.000155 s⁻¹
4,B4,0.000216 s⁻¹
5,B5,0.000135 s⁻¹
6,B6,0.000233 s⁻¹
7,B7,0.000145 s⁻¹
8,B8,0.000195 s⁻¹

# Target: T7, human SIRP-α v1 D1 domain (human, UniProt P78324 31-149)
# T7 construct: also called human v1
# Assay: SPR, Langmuir fit
# In short: as §1
# T7 sequence (P78324 31-149 limits assumed): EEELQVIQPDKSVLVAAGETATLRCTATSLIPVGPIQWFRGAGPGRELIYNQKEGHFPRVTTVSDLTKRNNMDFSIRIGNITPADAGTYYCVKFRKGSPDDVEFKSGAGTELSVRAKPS
row,Binder,koff
1,B1,0.000112 s⁻¹
2,B2,4.98e-05 s⁻¹
3,B3,0.00014 s⁻¹
4,B4,0.000257 s⁻¹
5,B5,0.000121 s⁻¹
6,B6,0.000205 s⁻¹
7,B7,0.00014 s⁻¹
8,B8,0.00018 s⁻¹

# Target: T8, C57BL/6 mouse SIRP-α D1 domain (mouse (C57BL/6 strain), UniProt P97797 32-148)
# T8 sequence: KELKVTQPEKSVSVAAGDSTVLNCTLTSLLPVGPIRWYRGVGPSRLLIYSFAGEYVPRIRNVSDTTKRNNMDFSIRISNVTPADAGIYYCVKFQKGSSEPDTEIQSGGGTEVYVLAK
# Assay: SPR, Langmuir fit
# In short: as §1
row,Binder,koff
1,B1,0.00029 s⁻¹
2,B2,0.00239 s⁻¹
3,B3,0.000998 s⁻¹
4,B4,0.00126 s⁻¹
5,B5,0.000736 s⁻¹
6,B6,0.000765 s⁻¹
7,B7,0.0015 s⁻¹
8,B8,0.000806 s⁻¹

# Target: T9, NOD mouse SIRP-α D1 domain (mouse (NOD strain))
# T9 chain: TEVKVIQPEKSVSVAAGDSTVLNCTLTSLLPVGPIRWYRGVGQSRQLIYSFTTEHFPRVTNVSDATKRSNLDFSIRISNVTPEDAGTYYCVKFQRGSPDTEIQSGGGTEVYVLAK
# Assay: SPR, Langmuir fit
# In short: as §1
row,Binder,koff
1,B1,0.000779 s⁻¹
2,B2,0.00135 s⁻¹
3,B3,0.000576 s⁻¹
4,B4,0.00386 s⁻¹
5,B5,0.000583 s⁻¹
6,B6,0.000709 s⁻¹
7,B7,0.000726 s⁻¹
8,B8,0.00264 s⁻¹

# Target: T10, mouse 129 SIRP-α D1 domain (mouse (129 strain), UniProt P97797 32-150)
# T10 construct: also called m129
# T10 chain: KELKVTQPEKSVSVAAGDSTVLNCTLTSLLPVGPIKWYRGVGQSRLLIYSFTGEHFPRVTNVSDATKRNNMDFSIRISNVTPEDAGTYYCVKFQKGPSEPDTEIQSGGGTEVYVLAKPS
# Assay: SPR, Langmuir fit
# In short: as §1
row,Binder,koff
1,B1,0.000133 s⁻¹
2,B2,0.000209 s⁻¹
3,B3,0.000179 s⁻¹
4,B4,0.000402 s⁻¹
5,B5,0.000153 s⁻¹
6,B6,0.000246 s⁻¹
7,B7,0.000221 s⁻¹
8,B8,0.000281 s⁻¹
